Test results as given in paper PMC10397247.

Legend:
Experiment in all cases: two-hybrid library CCmax;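 also: natural log of median RNA to DNA barcode read ratio; higher means stronger binding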
4H2907-AA = target: T1, 4H2907-AA; settings: mean of both orientations
T1 chain: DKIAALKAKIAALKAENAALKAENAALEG

4H1594-AA = target: T2, 4H1594-AA
T2 chain: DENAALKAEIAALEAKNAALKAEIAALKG

4H340-AA = target: T3, 4H340-AA; settings: mean of both orientations
T3 chain: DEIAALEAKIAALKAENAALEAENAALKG

4H3162-AA = target: T4, 4H3162-AA; settings: mean of both orientations
T4 chain: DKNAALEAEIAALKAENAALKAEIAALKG

4H1874-AA = target: T5, 4H1874-AA; settings: mean of both orientations
T5 chain: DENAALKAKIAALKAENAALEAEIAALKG

4H3865-AA = target: T6, 4H3865-AA; settings: mean of both orientations
T6 chain: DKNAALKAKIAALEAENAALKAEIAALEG

4H3413-AA = target: T7, 4H3413-AA; settings: mean of both orientations
T7 chain: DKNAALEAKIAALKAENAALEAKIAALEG

4H2620-AA = target: T8, 4H2620-AA; settings: mean of both orientations
T8 chain: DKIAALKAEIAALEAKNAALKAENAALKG

4H3133-AA = target: T9, 4H3133-AA; settings: mean of both orientations
T9 chain: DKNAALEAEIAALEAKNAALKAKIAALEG

4H3718-AA = target: T10, 4H3718-AA
T10 chain: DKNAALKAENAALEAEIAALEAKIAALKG

4H2198-AA = target: T11, 4H2198-AA; settings: mean of both orientations
T11 chain: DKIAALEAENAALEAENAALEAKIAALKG

4H3697-AA = target: T12, 4H3697-AA; settings: mean of both orientations
T12 chain: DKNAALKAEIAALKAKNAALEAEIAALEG

4H1845-AA = target: T13, 4H1845-AA; settings: mean of both orientations
T13 chain: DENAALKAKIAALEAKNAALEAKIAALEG

4H1629-AA = target: T14, 4H1629-AA; settings: mean of both orientations
T14 chain: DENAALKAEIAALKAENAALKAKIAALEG

4H3588-AA = target: T15, 4H3588-AA; settings: mean of both orientations
T15 chain: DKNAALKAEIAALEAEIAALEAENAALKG

4H32-AA = target: T16, 4H32-AA; settings: mean of both orientations
T16 chain: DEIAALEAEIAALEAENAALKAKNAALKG

4H3606-AA = target: T17, 4H3606-AA; settings: mean of both orientations
T17 chain: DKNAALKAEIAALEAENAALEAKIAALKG

4H982-AA = target: T18, 4H982-AA; settings: mean of both orientations
T18 chain: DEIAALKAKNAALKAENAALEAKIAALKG

4H2611-AA = target: T19, 4H2611-AA; settings: mean of both orientations
T19 chain: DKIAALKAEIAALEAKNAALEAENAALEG

4H3378-AA = target: T20, 4H3378-AA; settings: mean of both orientations
T20 chain: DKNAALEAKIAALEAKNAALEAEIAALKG

4H3631-AA = target: T21, 4H3631-AA; settings: mean of both orientations
T21 chain: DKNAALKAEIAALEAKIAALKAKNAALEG

4H3056-AA = target: T22, 4H3056-AA; settings: mean of both orientations
T22 chain: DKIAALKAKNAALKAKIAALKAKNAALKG

4H384-AA = target: T23, 4H384-AA; settings: mean of both orientations
T23 chain: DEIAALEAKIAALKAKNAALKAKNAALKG

4H2648-AA = target: T24, 4H2648-AA; settings: mean of both orientations
T24 chain: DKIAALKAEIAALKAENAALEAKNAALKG

4H2553-AA = target: T25, 4H2553-AA; settings: mean of both orientations
T25 chain: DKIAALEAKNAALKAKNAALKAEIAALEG

4H697-AA = target: T26, 4H697-AA; settings: mean of both orientations
T26 chain: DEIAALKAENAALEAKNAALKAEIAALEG

B1: 4H1594-AA (peptide)
chain: DENAALKAEIAALEAKNAALKAEIAALKG
interaction score (4H2907-AA): -1.36 | interaction score (4H1594-AA): 1.19 | interaction score (4H340-AA): 0.908 | interaction score (4H3162-AA): 0.0257 | interaction score (4H1874-AA): 2.24 | interaction score (4H3865-AA): 1.15 | interaction score (4H3413-AA): 1.73 | interaction score (4H2620-AA): -1.5 | interaction score (4H3133-AA): -2.2 | interaction score (4H3718-AA): -1.13 | interaction score (4H2198-AA): -1.61 | interaction score (4H3697-AA): 0.415 | interaction score (4H1845-AA): -0.968 | interaction score (4H1629-AA): -0.822 | interaction score (4H3588-AA): -1.26 | interaction score (4H32-AA): -1.19 | interaction score (4H3606-AA): 1.96 | interaction score (4H982-AA): 1.3 | interaction score (4H2611-AA): -1.7 | interaction score (4H3378-AA): -0.189 | interaction score (4H3631-AA): -1.31 | interaction score (4H3056-AA): -2.01 | interaction score (4H384-AA): -1.64 | interaction score (4H2648-AA): -0.627 | interaction score (4H2553-AA): -1.6 | interaction score (4H697-AA): -2.03
